Measured values published in US20080311125A1.

Target: HIV-1 gp120 (HIV-1)
Assay: ELISA, coated gp120; binding relative to scytovirin

Substance: SD2 (residues 49-95 of scytovirin with a substitution of serine at position 55) (peptide)
- percent binding in comparison to scytovirin: 50%
